Experimental data taken from patent publication US20240318262A1 (TOHOKU UNIVERSITY, published 2024).

Molecular target: T1, human LILRB4 in TIL regions of lung squamous cell carcinoma tissue specimens (human, UniProt Q8NHJ6 24-258)
T1 construct: Native LILRB4 on cells in patient tissue sections; also called immunosuppressive receptor LILRB4
Experiment: immunohistochemical staining of lung squamous cell carcinoma tissue specimens
Method: Immunohistochemical staining was performed using the anti-human LILRB4 monoclonal antibody #10 obtained in Experimental Example 6, which inhibits binding between fibronectin and human LILRB4, on each of the lung squamous cell carcinoma tissue specimens whose LILRB4 expression was previously determined to be strongly positive (High), medium positive (Medium) or weakly positive (Low), with goat anti-human LILRB4 polyclonal antibodies (available from R & D Systems). The results are illustrated in FIG. 3.

binding result: binds
B1: anti-human LILRB4 monoclonal antibody #10 (antibody, V domains shown)
VH: EVMLVESGGGLVQPGGSRKLSCAASGFTFSSFGMHWVRQAPEKGLEWVAYISSGSSTIYYVDTVKGRFTISRDNPKNTLFLQMTSLRSEDTAMYYCARSTGTGAMDYWGQGTSVTVSS
VL: DIQMTQTTSSLSASLGDRVTISCRASQDISNYLNWYQQKPDGTVKLLIYYTLRLYSGVPSRFSGSGSGTDYSLTISNLEQEDIATYFCQQGNTLPWTFGGGTKLEIK
notes: In the reporter assay it was used as hybridoma culture supernatant; also called anti-LILRB4 monoclonal antibody
